T1: human IL-11Rα (human, UniProt Q14626 23-363, limits assumed)
T1 construct: Protein coated on ELISA plates and used in solution for BLI; also called hIL-11Rα; hIL-11R
T1 sequence: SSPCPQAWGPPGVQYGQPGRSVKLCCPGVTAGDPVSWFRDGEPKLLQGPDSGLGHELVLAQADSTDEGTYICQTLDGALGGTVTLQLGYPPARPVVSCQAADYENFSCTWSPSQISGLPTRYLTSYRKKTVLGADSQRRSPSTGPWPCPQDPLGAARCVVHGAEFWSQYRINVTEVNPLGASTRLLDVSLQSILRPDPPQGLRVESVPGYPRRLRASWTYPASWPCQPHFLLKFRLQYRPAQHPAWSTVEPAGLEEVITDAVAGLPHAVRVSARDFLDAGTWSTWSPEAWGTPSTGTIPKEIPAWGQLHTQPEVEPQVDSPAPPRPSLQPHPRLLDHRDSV

T2: IL-11R on STAT3 Reporter (Luciferase)-HEK293 cells (UniProt Q14626 23-422)
T2 sequence (looked up): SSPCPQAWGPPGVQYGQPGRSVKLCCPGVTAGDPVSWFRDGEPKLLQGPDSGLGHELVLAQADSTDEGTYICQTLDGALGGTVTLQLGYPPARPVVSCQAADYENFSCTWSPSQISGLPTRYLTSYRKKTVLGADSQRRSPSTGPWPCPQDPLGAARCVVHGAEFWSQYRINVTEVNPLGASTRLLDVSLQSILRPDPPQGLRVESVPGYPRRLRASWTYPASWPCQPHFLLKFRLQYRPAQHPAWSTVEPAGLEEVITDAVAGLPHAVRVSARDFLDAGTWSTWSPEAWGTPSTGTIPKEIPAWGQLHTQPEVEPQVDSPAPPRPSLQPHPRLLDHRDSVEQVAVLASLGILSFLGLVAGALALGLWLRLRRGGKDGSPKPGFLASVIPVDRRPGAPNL

T3: hIL-11Rα (Homo sapiens, UniProt Q14626)
T3 sequence (Q14626 23-422): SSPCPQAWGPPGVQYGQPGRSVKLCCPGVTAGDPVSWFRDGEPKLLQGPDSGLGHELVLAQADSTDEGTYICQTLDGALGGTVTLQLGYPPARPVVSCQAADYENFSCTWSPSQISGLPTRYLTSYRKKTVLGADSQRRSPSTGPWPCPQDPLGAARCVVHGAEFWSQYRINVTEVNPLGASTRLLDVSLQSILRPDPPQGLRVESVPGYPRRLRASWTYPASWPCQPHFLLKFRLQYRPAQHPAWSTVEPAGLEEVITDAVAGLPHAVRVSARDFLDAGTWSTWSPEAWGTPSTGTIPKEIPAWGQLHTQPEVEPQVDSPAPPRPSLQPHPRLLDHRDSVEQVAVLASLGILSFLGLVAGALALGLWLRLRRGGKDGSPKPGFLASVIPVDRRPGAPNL


Legend:
human IL-11Rα [1] = target: T1, human IL-11Rα; assay: competitive ELISA, IL-11R coated on plate; competitor: biotinylated TS7 (0.1 µg/mL)
Description: Relative binding activity of the antibodies was tested by competitive ELISA using biotinylated mAbs 8E2 or TS7. Antibodies 8E2 and TS7 were biotinylated using sulfo-NHS Biotin (Thermo Fisher) per the manufacturer's instructions. IL-11R was coated onto ELISA plates (Nunc, MaxiSorp) at 2 μg/mL in PBS, and plates were blocked with 2% BSA in PBS. After washing the plate with water, antibodies to be tested were titrated across the plate in a final volume of 90 μL followed by addition of 10 μL of biotinylated 8E2 or biotinylated TS7, as indicated in Table E1 (0.1 μg/mL final concentration) to each well. Plates were incubated for 2 hours on a plate-shaker, followed by washing and addition of 100 μL/well of streptavidin-HRP (Jackson ImmunoResearch, 1/1000 dilution). After a further 1 hour incubation, plates were washed, developed with Ultra-TMB HRP substrate (Thermo Fisher), and stopped by the addition of 50 μL/well of 2 M sulfuric acid. Plates were read at 450 nm on an iD5 plate reader (Molecular Devices).

human IL-11Rα [2] = target: T1, human IL-11Rα; assay: BLI (Octet RED96e), mAb on protein G biosensors, hIL-11Rα in solution
Description: (§1) Association was carried out in the presence of a 2-fold dilution series of hIL-11Rα and was allowed to proceed for 120 seconds; dissociation was measured for 300 to 1200 seconds.

[3] = target: T2, IL-11R on STAT3 Reporter …; assay: cell-based or functional assay
[4] = tested on: IL-11 signaling in STAT3 Reporter (Luciferase)—HEK293 cell line; assay: Cell-based STAT3 reporter (luciferase) assay for inhibiting IL-11 signaling; parameters: species or system human; conditions: compared with TS7 and 8E2
Description: Further testing of the lead mAbs was carried out using a cell-based reporter assay. IL-11 is reported to signal through the STAT3 and ERK pathways. Therefore, a STAT3 reporter cell line in which firefly luciferase gene expression is driven by STAT3 response elements located upstream of a minimal TATA promoter was selected to analyze mAb functional activity. In these cells, IL-11 can activate the endogenous STAT3 allowing it to bind to the STAT3 response elements, inducing transcription of the luciferase reporter gene and resulting in readily detectable luciferase expression. Antibodies to IL-11R which block IL-11 signaling should inhibit expression of IL-11 driven luciferase in these cells.
The STAT3 Reporter (Luciferase)—HEK293 cell line (BPS Bioscience, catalog #79800-P) was grown, passaged, and assayed as per manufacturer's protocols. Cells were added at 25,000 cells per well in a 96-well microtiter dish and incubated at 37° C. for 30-45 min. in 5% CO2 humidified air. Anti-IL-11R mAbs were added as a 3-fold dilution series in duplicate columns or rows, and plates were returned to the incubator for an additional 1 h at 37° C. after which 40 ng/mL IL-11 was added to each well to initiate the signal transduction cascade and luciferase production. Plates were incubated for 18-24 hours at 37° C. and luciferase was detected using a One-Step Luciferase Assay System (BPS Bioscience, cat. no. 60690-1) as per manufacturer's instructions.

hIL-11Rα = target: T3, hIL-11Rα; assay: Kinetic binding analysis by biolayer interferometry (protein G biosensors, Octet RED96e); conditions: protein G biosensors
Description: as §1

| Molecule | IC50 (human IL-11Rα [1]) [µg/mL] | Kd (human IL-11Rα [2]) [pM] | koff (human IL-11Rα [2]) [s⁻¹] | kon (human IL-11Rα [2]) [M⁻¹ s⁻¹] | IC50, STAT3 luciferase reporter assay (HEK293), inhibiting IL-11, Assay 1 [3] [µg/mL] | IC50, STAT3 luciferase reporter assay (HEK293), inhibiting IL-11, Mean [3] [µg/mL] | relative potency at inhibiting IL-11 signaling (in words) [4] | ka (hIL-11Rα; association 120 seconds) [M⁻¹ s⁻¹] | kd (hIL-11Rα; dissociation 300 to 1200 seconds) [s⁻¹] | IC50, STAT3 luciferase reporter assay (HEK293), inhibiting IL-11, Assay 2 [3] [µg/mL] |
| --- | --- | --- | --- | --- | --- | --- | --- | --- | --- | --- |
| mAb7 (antibody, V domains shown, Expressed as human IgG4 (S228P EU)) VH: EVQLLESGGGLVQPGGSLRLSCAASGFTFSNYAMSWVRQAPGKGLEWVSSIVPYGDLTQYADSVKGRFTISRDNSKNTLYLQMNSLRAEDTAVYYCAKGPGWGSFDLWGRGTLVTVSS VL: DIQMTQSPSSLSASVGDRVTITCQASQDINNYLNWYQQKPGKAPKLLIYDASNLQTGVPSRFSGSGSGTDFTFTISSLQPEDIATYYCQQHESQSPTFGPGTKVDIK | 6.9 | < 1 | < 1e-07 | 63500 | 1 | 1 |  |  |  |  |
| mAb11: anti-IL-11Rα antibody; VH SEQ ID NO: 213, VL SEQ ID NO: 214; human IgG4 (S228P), kappa light chain (antibody, V domains shown, human IgG4 S228P and kappa constant regions; mAb11 VH Chain; mAb11 VL Chain, anti-IL-11Rα antibody; human IgG4 (S228P), kappa light chain) VH: EVQLLESGGGLVQPGGSLRLSCAASGFTFSWYSMTWVRQAPGKGLEWVSSIVDYGDLTQYADSVKGRFTISRDNSKNTLYLQMNSLRAEDTAVYYCAKGPGWGSFDLWGRGTLVTVSS VL: DIQMTQSPSSLSASVGDRVTITCQASQDINNYLNWYQQKPGKAPKLLIYDASNLQTGVPSRFSGSGSGTDFTFTISSLQPEDIATYYCQQHESQSPTFGPGTKVDIK |  |  |  |  |  |  | less potent than TS7 | 32900 | 0.0181 |  |
| mAb13 (antibody, V domains shown, Expressed as human IgG4 (S228P EU)) VH: EVQLLESGGGLVQPGGSLRLSCAASGFTFSWYSMTWVRQAPGKGLEWVSSIVPYGDLTQYADSVKGRFTISRDNSKNTLYLQMNSLRAEDTAVYYCAKPEDWGRFDLWGRGTLVTVSS VL: DIQMTQSPSSLSASVGDRVTITCQASQDINNYLNWYQQKPGKAPKLLIYDASNLQTGVPSRFSGSGSGTDFTFTISSLQPEDIATYYCQQHESQSPTFGPGTKVDIK | 2.3 | < 1 | < 1e-07 | 66700 | 0.05 | 0.12 |  |  |  | 0.19 |
| mAb12 (antibody, V domains shown, Expressed as human IgG4 (S228P EU)) VH: EVQLLESGGGLVQPGGSLRLSCAASGFTFSWYSMTWVRQAPGKGLEWVSSIVPYGDLTQYADSVKGRFTISRDNSKNTLYLQMNSLRAEDTAVYYCAKGPGWYSFDLWGRGTLVTVSS VL: DIQMTQSPSSLSASVGDRVTITCQASQDINNYLNWYQQKPGKAPKLLIYDASNLQTGVPSRFSGSGSGTDFTFTISSLQPEDIATYYCQQHESQSPTFGPGTKVDIK | 3.6 | < 1 | < 1e-07 | 58100 | 0.42 | 0.41 |  |  |  | 0.39 |
| mAb14 (antibody, V domains shown, Expressed as human IgG4 (S228P EU)) VH: EVQLLESGGGLVQPGGSLRLSCAASGFTFSWYSMTWVRQAPGKGLEWVSSIVPYGDLTQYAESVKGRFTISRDNSKNTLYLQMNSLRAEDTAVYYCAKGPGWGSFDLWGRGTLVTVSS VL: DIQMTQSPSSLSASVGDRVTITCQASQDINNYLNWYQQKPGKAPKLLIYDASNLQTGVPSRFSGSGSGTDFTFTISSLQPEDIATYYCQQHESQSPTFGPGTKVDIK | 2 | < 1 | < 1e-07 | 33700 | 0.39 | 0.34 |  |  |  | 0.28 |
| mAb9 (antibody, V domains shown, Expressed as human IgG4 (S228P EU)) VH: EVQLLESGGGLVQPGGSLRLSCAASGFTFSWYSMTWVRQAPGKGLEWVSGIVPYGDLTQYADSVKGRFTISRDNSKNTLYLQMNSLRAEDTAVYYCAKGPGWGSFDLWGRGTLVTVSS VL: DIQMTQSPSSLSASVGDRVTITCQASQDINNYLNWYQQKPGKAPKLLIYDASNLQTGVPSRFSGSGSGTDFTFTISSLQPEDIATYYCQQHESQSPTFGPGTKVDIK | 2.3 | < 1 | < 1e-07 | 62200 | 0.11 | 0.1 |  |  |  | 0.1 |
| mAb11 (antibody, V domains shown, Expressed as human IgG4 (S228P EU)) VH: EVQLLESGGGLVQPGGSLRLSCAASGFTFSWYSMTWVRQAPGKGLEWVSSIVDYGDLTQYADSVKGRFTISRDNSKNTLYLQMNSLRAEDTAVYYCAKGPGWGSFDLWGRGTLVTVSS VL: DIQMTQSPSSLSASVGDRVTITCQASQDINNYLNWYQQKPGKAPKLLIYDASNLQTGVPSRFSGSGSGTDFTFTISSLQPEDIATYYCQQHESQSPTFGPGTKVDIK | > 15 | 550000 | 0.0181 | 32900 | > 100 | > 100 |  |  |  |  |
| mAb10 (antibody, V domains shown, Expressed as human IgG4 (S228P EU)) VH: EVQLLESGGGLVQPGGSLRLSCAASGFTFSWYSMTWVRQAPGKGLEWVSSIVAYGDLTQYADSVKGRFTISRDNSKNTLYLQMNSLRAEDTAVYYCAKGPGWGSFDLWGRGTLVTVSS VL: DIQMTQSPSSLSASVGDRVTITCQASQDINNYLNWYQQKPGKAPKLLIYDASNLQTGVPSRFSGSGSGTDFTFTISSLQPEDIATYYCQQHESQSPTFGPGTKVDIK | > 15 | 496 | 0.000416 | 840000 | 2 | 2 |  |  |  |  |
| mAb8 (antibody, V domains shown, Expressed as human IgG4 (S228P EU)) VH: EVQLLESGGGLVQPGGSLRLSCAASGFTFSSYAMSWVRQAPGKGLEWVSSIVPYGDLTQYADSVKGRFTISRDNSKNTLYLQMNSLRAEDTAVYYCAKGPGWGSFDLWGRGTLVTVSS VL: DIQMTQSPSSLSASVGDRVTITCQASQDINNYLNWYQQKPGKAPKLLIYDASNLQTGVPSRFSGSGSGTDFTFTISSLQPEDIATYYCQQHESQSPTFGPGTKVDIK | 6.2 | < 1 | < 1e-07 | 65100 | 0.67 | 0.96 |  |  |  | 1.25 |
